# Laboratory results as given in US5688671A, “Mutant aspartokinase gene” (Ajinomoto Co., Inc., priority 1993, dated 1997).
# Substitutions are numbered along the chain they refer to.
# B1: Cys: mutant aspartokinase 279 Ala→Cys, plasmid p399AKAC (p399AKACB) (protein, UniProt P26512 1-421, looked up, variant A279C)
# Aspartokinase: MALVVQKYGGSSLESAERIRNVAERIVATKKAGNDVVVVCSAMGDTTDELLELAAAVNPVPPAREMDMLLTAGERISNALVAMAIESLGAEAQSFTGSQAGVLTTERHGNARIVDVTPGRVREALDEGKICIVAGFQGVNKETRDVTTLGRGGSDTTAVALAAALNADVCEIYSDVDGVYTADPRIVPNAQKLEKLSFEEMLELAAVGSKILVLRSVEYARAFNVPLRVRSSYSNDPGTLIAGSMEDIPVEEAVLTGVATDKSEAKVTVLGISDKPGECAKVFRALADAEINIDMVLQNVSSVEDGTTDITFTCPRSDGRRAMEILKKLQVQGNWTNVLYDDQVGKVSLVGAGMKSHPGVTAEFMEALRDVNVNIELISTSEIRISVLIREDDLDAAARALHEQFQLGGEDEAVVYAGTGR
# B2: Phe: mutant aspartokinase 279 Ala→Phe, plasmid p399AKAF (p399AKAFB) (protein, UniProt P26512 1-421, looked up, variant A279F)
# Aspartokinase: B1 Aspartokinase with C279F
# B3: Tyr: mutant aspartokinase 279 Ala→Tyr, plasmid p399AKAY (p399AKAYB) (protein, UniProt P26512 1-421, looked up, variant A279Y)
# Aspartokinase: B1 Aspartokinase with C279Y
# B4: Val: mutant aspartokinase 279 Ala→Val, plasmid p399AKAV (p399AKAVB) (protein, UniProt P26512 1-421, looked up, variant A279V)
# Aspartokinase: B1 Aspartokinase with C279V
# Tested on: aspartokinase
# Assay: Aspartokinase (AK) activity of cell-disrupted solutions of Corynebacterium glutamicum strains, with and without L-lysine/L-threonine
# Assay type: biochemical, Corynebacterium glutamicum (Brevibacterium lactofermentum)
# Conditions: 2 mM lysine + threonine; plasmids introduced into AJ12036
# From the text: When a wild type strain is used as a donor for the DNA fragment containing the AK gene, a DNA fragment containing a wild type AK gene can be obtained. The DNA fragment containing the gene for AK in which synergistic feedback inhibition by L-lysine and L-threonine is substantially desensitized can be obtained by using a mutant strain in which synergistic feedback inhibition on the AK activity by L-lysine and L-threonine is substantially desensitized. The mutant strain can be obtained, for example, from a group of cells subjected to an ordinary mutation treatment, ultraviolet light irradiation, or a treatment with a mutating agent such as N-methyl-N'-nitro-N-nitrosoguanidine (NTG). The AK activity can be measured by using a method described in Miyajima, R. et al., The Journal of Biochemistry (1968), 63(2), 139-148.
# Strains were prepared by introducing the wild type AK plasmid p399AKYB and the mutant AK plasmid p399AK9B respectively into AJ12036 strain (FERM P-7559) as a wild type strain of Corynebacterium glutamicum (Brevibacterium lactofermentum). The genes were introduced into Corynebacterium by means of an electric pulse method. The aspartokinase activity was measured for Corynebacterium glutamicum (Brevibacterium lactofermentum) AJ12036 strain as a host, AJ12690 strain harboring the wild type AK plasmid, and AJ12691 (FERM P12918) strain harboring the mutant AK plasmid. The activity was measured in accordance with an ordinary method (see Miyajima, R. et al., The Journal of Biochemistry (1968) 63(2), 139-148). […]
# Strains were prepared by introducing 8 kinds of the plasmids shown in Table 3 into AJ12036 strain (FERM P-7559) as a wild type strain of Corynebacterium glutamicum (Brevibacterium lactofermentum) in the same manner as Example 3. The AK activity was measured for each of the strains. […] The desensitization degree of inhibition by lysine and/or threonine was similar to those in Example 6.
row,Molecule,2 mM Lys + Thr (desensitization degree of inhibition)
1,B1,60.6%
2,B2,32.4%
3,B3,32.2%
4,B4,75.5%

# Same assay, conditions: lysine 5 mM; plasmids introduced into AJ12036
row,Molecule,5 mM Lys (desensitization degree of inhibition)
1,B1,66.5%
2,B2,14.6%
3,B3,16.1%
4,B4,60.5%

# Same assay, conditions: plasmids introduced into AJ12036; Table 5
row,Molecule,Specific activity
1,B1,267.0 mU/mg protein
2,B2,447.7 mU/mg protein
3,B3,425.6 mU/mg protein
4,B4,448.9 mU/mg protein

# Same assay, conditions: threonine 5 mM; plasmids introduced into AJ12036
row,Molecule,5 mM Thr (desensitization degree of inhibition)
1,B1,135.7%
2,B2,105.0%
3,B3,104.8%
4,B4,103.5%

# Tested on: Corynebacterium glutamicum (Brevibacterium lactofermentum) AJ12036
# Assay: L-lysine productivity evaluated by cultivation in production medium
# Assay type: cell-based
# Conditions: plasmids introduced into AJ12036; cultivation as in Example 3
# Description: The lysine productivity was evaluated by cultivation for the wild type strain AJ12036, the wild type AK plasmid-harboring strain AJ12690, and the mutant AK plasmid-harboring strain AJ12691 (FERM P-12918). The evaluation by cultivation was performed by inoculating the strains to a production medium (containing glucose 100 g, (NH4)2 SO4 55 g, KH2 PO4 1 g, MgSO4.7H2 O 1 g, soybean protein acid hydrolysate "Mamenou" (product of Ajinomoto Co., Ltd., trade name) 50 ml, FeSO4.7H2 O 10 mg, MnSO4.4H2 O 10 mg, nicotinic acid amide 5 mg, and CaCO3 50 g in 1 l of pure water, pH 8.0), and cultivating them with reciprocatory shaking at 31.5° C. for 72 hours. […] The plasmid-holding ratio upon completion of the cultivation was measured by using an index of chloramphenicol resistance as a drug resistance marker of the plasmid.
# The lysine productivity was further evaluated by cultivation for the 9 kinds of these strains by using a method similar to that in Example 3.
row,Molecule,Lys--HCl
1,B1,13.41 g/L
2,B2,25.14 g/L
3,B3,25.12 g/L
4,B4,25.02 g/L

# Tested on: AK
# Assay: AK enzyme activity and inhibition by lysine/threonine in cell-free extracts of AK-deficient Escherichia coli Gif106M1 transformants
# Assay type: biochemical, Corynebacterium glutamicum
# Conditions: E. coli Gif106M1 cell-free extracts
# From the text: Bacteriol. 112, 84-92 (1972), Theze, J. et al., J. […] It is known that most of genes of bacteria belonging to the genus Corynebacterium are expressed in Escherichia coli. In addition, the AK gene was ligated at a position downstream from lac promoter on pHSG399. Thus it was postulated that the gene could be expressed in Escherichia coli. […] Thus it was confirmed that AK from the bacteria belonging to the genus Corynebacterium was expressed and operated in cells of Escherichia coli. Subsequently, cell-free extracts were prepared from bacterial cells, and the enzyme activity of AK was measured. Upon measurement of the enzyme activity of AK, various concentrations of lysine and threonine were added to enzyme reaction solutions to investigate the degree of inhibition (FIG. 2). […] (Ki value: 0.4 mM→5.0 mM). […] Cell-free extracts were prepared, and enzymes were analyzed.
Molecule,concerted inhibition by lysine+threonine,inhibition by lysine alone as compared with the wild type
B1,enhanced,equivalent to that in the wild type
B2,–,enhanced
B3,–,enhanced

# Same assay, conditions: E. coli Gif106M1 cell-free extracts; Table 4
row,Molecule,Specific activity
1,B1,15.4 mU/mg protein
2,B2,18.7 mU/mg protein
3,B3,14.4 mU/mg protein
4,B4,21.8 mU/mg protein

# Same assay, conditions: lysine 5 mM+threonine 5 mM; activity without addition = 100%; E. coli Gif106M1 extracts
row,Molecule,"5 mM Lys + Thr (degree of desensitization of inhibition, activity-holding ratio)"
1,B1,17.0%
2,B2,18.2%
3,B3,19.4%
4,B4,52.3%

# Same assay, conditions: lysine 5 mM; activity without addition = 100%; E. coli Gif106M1 extracts
row,Molecule,"5 mM Lys (degree of desensitization of inhibition, activity-holding ratio)"
1,B1,56.3%
2,B2,12.1%
3,B3,14.4%
4,B4,51.1%

# Same assay, conditions: threonine 5 mM; activity without addition = 100%; E. coli Gif106M1 extracts
row,Molecule,"5 mM Thr (degree of desensitization of inhibition, activity-holding ratio)"
1,B1,108.1%
2,B2,103.0%
3,B3,103.6%
4,B4,98.3%

# Tested on: AK
# Assay: Thermal stability of AK, treatment at 55° C. for 1.5 hour
# Assay type: biochemical, Corynebacterium glutamicum
# Conditions: FIG. 6
# Description: The activity-holding ratio after a treatment at 55° C. for 90 minutes is indicated by %.
# Thermal stability was investigated as an index of stability of the enzyme structure constructed by the introduction of mutation. The treatment condition was set at 55° C. for 1.5 hour in which the activity of the wild type AK was about 80%.
row,Molecule,thermal stability compared with the wild type
1,B1,higher stability than that of the wild type
2,B2,higher stability than that of the wild type
3,B3,higher stability than that of the wild type
4,B4,highest stability
